Reference: publication PMC4836650 (RNA, 2016)

Target: L7Ae (Pyrococcus furiosus, UniProt Q8U160 1-123)
Assay: SEC

B1: Nop5 (L148K, V223E) (natural protein)
chain: MKAFISENVRGIYAFDENGNLIEKRYFTDKPEKVLDQLLKGEITKDLEELLNSLKEKGYDEFVFEHPELSRRAKELGFSATTEFPNIAGERLRSNPEEFLGENWFEEYYKVGVALTRMRIQEQSGARDKMVIQAIEALDDVDKVINLKVARLREWYSLHFPELDELLPKHPQYVAFVKTVGHRDNINEEVLRELGLSEEKIKKILEAKEKTMGAWMDQTDIEEVRQLAEEIDRLYQLRKKLEDYIDRAMDDVAPNLKALVGAKLAARLISLAGGLRELAMMPSSTIQVLGAEKALFRHLRTGAKPPKHGVIYQYPAINRSPWWQRGKIARALAGKLAIAARVDYFSGEYIAEELKKELEARIREIKEKYPKPPKRKREERKGKKPWKKDKKKKKKKEKPRRR
binding result: binds
